Reference: PMC10881392

Legend:
[1] = biological target: HIV-1 capsid (CA) unassembled CA (Human immunodeficiency virus 1) (UniProt O93182); details: cited from earlier work
[2] = biological target: HIV-1 capsid (CA) hexamer CA (Human immunodeficiency virus 1) (UniProt O93182); details: cited from earlier work
[3] = biological target: HIV-1 capsid (CA) CA (Human immunodeficiency virus 1) (UniProt O93182); details: cited from earlier work
[4] = biological target: unstructured FG domain of Nup98 (residues 1-499), His-tagged, as phase-separated condensates (human) (UniProt P52948)
CypA, GFP fusion = CypA, GFP fusion (UniProt P62937); assay: FFS; details: parent: est. 1.0, read off a plot
GFP-Nup42 (full-length) = GFP-Nup42 (full-length) (UniProt O15504); assay: FFS; details: n = 10 scans; parent: est. 1.0; read off a plot
[5] = biological target: CPSF6 (313-327) peptide, Q16630-2; assay: FFS; details: parent: est. 1.0, read off a plot
GFP-Nup62 (full-length) = GFP-Nup62 (full-length) (UniProt P37198); assay: FFS; details: n = 10 scans; parent: est. 1.0; read off a plot
[6] = biological target: GFP-Pom121 (266-1249), transmembrane domain truncated (UniProt Q96HA1); assay: FFS; details: n = 10 scans; parent: est. 1.0; read off a plot
[7] = biological target: GFP-Nup98 (1-499), FG-repeat domain (UniProt P52948); assay: FFS; details: n = 10 scans; parent: est. 1.0; read off a plot
[8] = biological target: Nup153 (1407-1423) peptide (UniProt P49790); assay: FFS; details: parent: est. 1.0, read off a plot
[9] = biological target: GFP-Nup214 (1210-2090), FG-repeat domain (UniProt P35658); assay: FFS; details: n = 15 scans; parent: est. 1.0; read off a plot
GFP-Nup58 (full-length) = GFP-Nup58 (full-length) (UniProt Q9BVL2); assay: FFS; details: n = 15 scans; parent: est. 1.0; read off a plot
[10] = biological target: Nup98 fragment 118–345 (13 FGs); assay: FFS; details: n = 10 scans; parent: est. 1.1; read off a plot
[11] = biological target: Nup98 fragment 346–499 (13 FGs); assay: FFS; details: n = 10 scans; parent: est. 2.4; read off a plot
[12] = biological target: Nup98 fragment 1–119 (13 FGs); assay: FFS; details: n = 10 scans; parent: est. 1.1; read off a plot

Chain of CPSF6 (313-327) peptide, Q16630-2 (Q16630 whole entry, looked up, tested part not stated): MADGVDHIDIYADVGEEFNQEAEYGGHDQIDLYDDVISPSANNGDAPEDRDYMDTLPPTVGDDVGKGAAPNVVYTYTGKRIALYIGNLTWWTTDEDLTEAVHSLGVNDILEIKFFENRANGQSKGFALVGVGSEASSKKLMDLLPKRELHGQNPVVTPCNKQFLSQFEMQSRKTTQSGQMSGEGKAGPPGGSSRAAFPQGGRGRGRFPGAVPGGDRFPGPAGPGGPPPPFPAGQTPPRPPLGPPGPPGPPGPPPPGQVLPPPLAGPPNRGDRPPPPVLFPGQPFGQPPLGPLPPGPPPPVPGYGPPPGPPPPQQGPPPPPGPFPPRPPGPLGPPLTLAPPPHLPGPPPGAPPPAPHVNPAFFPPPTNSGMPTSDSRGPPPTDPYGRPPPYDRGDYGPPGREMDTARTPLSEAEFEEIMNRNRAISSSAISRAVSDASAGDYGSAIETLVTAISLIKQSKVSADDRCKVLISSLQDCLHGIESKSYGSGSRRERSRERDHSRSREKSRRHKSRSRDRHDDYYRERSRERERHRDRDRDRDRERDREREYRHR
Chain of Nup153 (1407-1423) peptide (P49790 whole entry, looked up, the tested form may be a part): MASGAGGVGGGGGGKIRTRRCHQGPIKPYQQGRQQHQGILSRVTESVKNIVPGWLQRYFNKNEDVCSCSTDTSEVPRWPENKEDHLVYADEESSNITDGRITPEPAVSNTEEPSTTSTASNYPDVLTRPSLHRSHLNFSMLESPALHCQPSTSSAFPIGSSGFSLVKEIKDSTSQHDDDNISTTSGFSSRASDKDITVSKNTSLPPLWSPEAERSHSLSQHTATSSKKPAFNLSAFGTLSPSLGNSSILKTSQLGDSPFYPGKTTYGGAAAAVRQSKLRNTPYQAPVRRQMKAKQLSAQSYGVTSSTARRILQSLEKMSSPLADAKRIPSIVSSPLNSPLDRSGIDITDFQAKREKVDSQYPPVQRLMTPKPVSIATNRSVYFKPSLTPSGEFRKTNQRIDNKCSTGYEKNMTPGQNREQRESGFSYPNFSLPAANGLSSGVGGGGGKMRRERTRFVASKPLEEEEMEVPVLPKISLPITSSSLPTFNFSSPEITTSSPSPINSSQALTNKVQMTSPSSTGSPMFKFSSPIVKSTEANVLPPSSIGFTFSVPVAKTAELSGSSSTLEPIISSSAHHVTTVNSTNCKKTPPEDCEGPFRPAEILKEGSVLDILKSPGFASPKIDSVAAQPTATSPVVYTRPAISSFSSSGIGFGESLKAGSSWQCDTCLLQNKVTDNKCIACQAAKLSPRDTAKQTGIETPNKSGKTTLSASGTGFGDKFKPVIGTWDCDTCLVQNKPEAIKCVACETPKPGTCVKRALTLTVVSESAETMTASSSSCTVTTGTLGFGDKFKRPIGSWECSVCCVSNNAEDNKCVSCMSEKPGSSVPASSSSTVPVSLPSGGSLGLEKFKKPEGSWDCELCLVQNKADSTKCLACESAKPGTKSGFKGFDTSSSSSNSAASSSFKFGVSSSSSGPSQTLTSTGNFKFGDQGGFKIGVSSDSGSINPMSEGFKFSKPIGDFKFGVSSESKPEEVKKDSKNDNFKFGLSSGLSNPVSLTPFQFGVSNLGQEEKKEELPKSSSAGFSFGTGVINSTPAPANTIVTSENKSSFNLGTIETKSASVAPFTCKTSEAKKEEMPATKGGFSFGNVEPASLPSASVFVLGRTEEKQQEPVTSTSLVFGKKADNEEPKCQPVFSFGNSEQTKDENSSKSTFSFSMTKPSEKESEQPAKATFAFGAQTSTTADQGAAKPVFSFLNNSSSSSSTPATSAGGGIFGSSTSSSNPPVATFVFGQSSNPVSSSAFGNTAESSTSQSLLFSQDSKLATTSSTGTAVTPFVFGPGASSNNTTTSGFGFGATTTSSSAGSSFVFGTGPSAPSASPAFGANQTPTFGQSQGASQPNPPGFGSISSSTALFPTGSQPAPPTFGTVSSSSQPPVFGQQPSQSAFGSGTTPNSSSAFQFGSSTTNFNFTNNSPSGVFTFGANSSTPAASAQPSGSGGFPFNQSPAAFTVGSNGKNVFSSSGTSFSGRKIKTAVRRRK

Substance	ratio to parent (CypA, GFP fusion; n = 10 scans)	ratio to parent (GFP-Nup42 (full-length))	ratio to parent ([5]; n = 10 scans)	ratio to parent (GFP-Nup62 (full-length))	ratio to parent [6]	ratio to parent [7]	ratio to parent ([8]; n = 10 scans)	ratio to parent [9]	also measured
CPSF6 313-327 (from UniProt Q16630)	–	–	–	–	–	–	–	–	Kd [1]: 700 µM; Kd [2]: 50 µM
HIV-1 capsid (CA) CA (from UniProt O93182)	–	–	–	–	–	–	–	–	Kd [3]: 40 µM
capsid-like particles (CLPs; CA A204C cross-linked assemblies labelled with Alexa Fluor 568), wild-type (complex)	–	–	–	–	–	–	–	–	median penetration depth of unlabelled CLPs into Nup98 condensates, cryo-ET [4]: 65 nm
capsid-like particles (CLPs; CA A204C cross-linked assemblies labelled with Alexa Fluor 568), wild-type A77V	1.6	1.2	0.15	1.7	1.7	1.4	3.9	1.4	–
capsid-like particles (CLPs; CA A204C cross-linked assemblies labelled with Alexa Fluor 568), wild-type N57D	1.4	0.35	0.03	-0.1	-0.02	0.35	–	0.2	ratio to parent (GFP-Nup58 (full-length)): -0.1; response [10]: 0.22; response [11]: 0.2; ratio to parent ([8]; n = 9 scans): 0.18; response [12]: 0.19
capsid-like particles (CLPs; CA A204C cross-linked assemblies labelled with Alexa Fluor 568), wild-type N74D	–	1.8	–	–	1.9	1.7	1.4	1.8	ratio to parent (CypA, GFP fusion; n = 8 scans): 1.3; ratio to parent ([5]; n = 8 scans): 0
